Measured values published in the nanobody polyreactivity screen of Harvey et al. (2022).

Test: yeast display, Sf9 membrane polyspecificity reagent, FACS + sequencing; frameworks hold sequencing errors
Summary of the method: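 Genes from sorted yeast were amplified by colony PCR, read by MiSeq 2 × 250 sequencing and filtered on CDR length. These cells carried a synthetic nanobody library in Saccharomyces cerevisiae BJ5465 and were sorted by FACS into low and high (top ~1%) gates on anti-HA and streptavidin fluorescence. Polyreactivity is labelled according to the gate of origin.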

| Sequence | polyreactivity (PSR sort gate) |
| --- | --- |
| QVQLVESGGGLVQAGGSLRLSCAASGIIFGWYAMGWYRQAPGKEREFVATISWSGASTYYADSVKGRFTISRDNAKNTVYLQMNSLKPEDTAVYYCAAGGRRQAYGRRDYWGQGTQVTVSS | high polyreactivity |
| QVQLVESGGGLVQARGSLRLSCAASGRTSPYYAMGWYRQAPGKEREWVAAISDGGSTNYADSVKGRFTISRDNAKNTVYLQMNSLKPEDTAVYYCAAYWHCFGWLRGGYWGQGTQVTVSS | high polyreactivity |
| QVQLVESGGGLVQAGGSLRLSCAASGITFGYYDMGWYRQAPGKERELVAAISRGGGRTYYADSVKGRFTISRDNAKNTVYLQMNSLKPEDSAVYYCAAPSRYGGRGRPTLYDYWGQGTQVTVSS | high polyreactivity |
| QDQLVESRGGLVQAGGSLRLICDASGFTFDSNAMVWYRQEPGKERQLVAAISARGTSTYYADSVKGRFTISRDNAKNTVYLQMNSLKPEDTAVYDCNTGESSWYLPEEDYWGQGTQVTLSS | low polyreactivity |
| QVQLVESGGGLVQAGGSLRLSCAASGFTFQYYAMGCYRPAPGKERELVATISSTDNTYYADSVKGRFTISRDNAKNTVYLQMFSLKPEDTAVYYCNAAYVYGYQARGGYWGQGTQVTVSS | high polyreactivity |
| QVQLVESGGGLVQAGGSLRLSCAASGIIFPYYAMGWYRQAPGKERELVAGISSSGGITYADSVKGRFTISRDNAKNTVYLQMNSLKPEDTAVYYCAARYPARGTLYYWGQGTQVTVSS | low polyreactivity |
| QVQLVESRGGLVQAGGSLRLSCAASRSTFGVNAMGWYRQAPGKERELVARISSGVRTYYADSVKGRFTISRDNAKNTVYLQMNSMIPEDTAVYYCAAVYFRGVDRAFLSYSYYYWGQGTQVTVSS | high polyreactivity |
| QVQLVESGGALVQAGGRLRLSCAASGSILVTNDMGLYRQAPGKDRELEAAICWSGGSTYYADSVKGRFTISRDNAKNSVYLQMNSLKPEDTAVYYCAAGLGFLFARQALEFDYWGQGTKVTVSS | low polyreactivity |
| QVQLVESGGGLVQAGGSLRLTCAASGRIFDYNDMGWYRQAPGKERELVAAITSDGSTNYADSVKGRFTISRDNAKNTVFLQMNSLKPEDPAVYYCAADTGETFDSIYDYWGQGTQVTVSS | low polyreactivity |
| QVQLVESAGGLVQAGGTLRLSCAASGSIFRTHTMGWYRQAPGKERELVAAITAIGDSTYYADAVKGRFTISRDNAKNTVNRQLHSLKPEDTAVYYCAAEKVSWGYHFYSSYDYWGQGTQVTVSS | low polyreactivity |
| QVQLVESGGGLVQAGGSLRLSCAASGSIFLSYAMGWDRPAPGKVRELVADISRSGGSTYYADSVKGRFTISRDNAKNTVYLQMNSLKPEDTAVYYCAVYIAVYEGDYWGQGTQVTVSS | low polyreactivity |
| QVQLVESGGGLVQAGGSLRLSCAASGTFAIYAMGWYRQAPGKERELVAAIRWRGGRTYYADSVKGRFTISRDNAKNTVYFQMNSLKPEDTAVYYCAAEVPYYWWSPYRVDVGYWGQGTQVTVSS | high polyreactivity |
| QVQLVESGGGLVQAGGSLRLSCAASGSIFYRYAIGWYRHPPGKERELVAAITRGGTTYYADSVKGRFTISRDNAKNTVYLQMNSLKPEDSAVYYCAARLRYTTVIYYYWGQGTQVTVSS | high polyreactivity |
| QVQLVESGGGLVQAGGSLRLSCAASGITLGRYAMGWYRQAPGKERELVAAISRSGGSTYYADSVKGRFTISRANAKTTVYLQMNSLKPEDTAVYYCNRRVYPTSDYDYWGQGTQVTVSS | high polyreactivity |
| QVQLVESGGGLVQAGGSLRLSCAASGGIFSYNAMGWYIQAPGKERELVATISYSGGSTFYADSVKGRFTISRHNAKNTVYFQMNSLKPEDTAVYYCARPSYTSGYQSYDYWGQGTQVTVSS | low polyreactivity |
| QVQLVESGGGLVQAGGSLRLSCAASGGILRDYAMGWSRQAPGKERELVAAISRGGRTNYADSVKGRFTISRDYSKNTVYLQLNSLKPEDTAVYYCAKRYARGENDYWGQGTQVNVSS | high polyreactivity |
| QVQLVESGGGLVQAGGSLRLSCAASGSTFDRYAMGGYIQAPGKERELVAAISWSGGSTYYADSVKGRFTISRDNAKNTVYFQMNSLKPEDTAVYYCASPYYYLHNQRYWGYDYWGQGTQVTVSS | high polyreactivity |
| QVHLVESGGGLVQAGGSLRLSCAASGFTFGINAMGWYRQAPGKERELVAAINQSGDRTYYADSVKGRFTISRDNAKNPVYLELNSLKPDDTAVYYCAADTSYWYDYYIDYVGYYYWGQGTQVTVSS | high polyreactivity |
| QVQLVESGGGLVQAGGSLRLSCAASGSIFNAMGWYRQAPGKERELVAAITSGSSTYYADSVKGRFTISRDNAKNTVYLQMNSLKPEDTAVYYCAAGSQRRYYHTNWDSFNYWGQGTQVTVSS | low polyreactivity |
| QVQLVESGGGLVQAGASLRLSCAASGITLDLYDMGWYRQAPGKERELVAAISRSGVRTYYADSVKWRFTISRDNAKNTVYFQMNSLKPEDTSVYYCNKGYARRYASGYDYWGQGTQVSVSS | high polyreactivity |
| QVQLVESGGGLVQAGGSLRLSCAASGRIFGRNAMGWYRQAPGKERELVAAISSGSGSTYYADSVKGRFTISRDNAKNTVYLQMISLKPEDTAVYYCAATVSTYLAWRGYWGQGTQVTVSS | high polyreactivity |
| QVQLVESGGGLVQAGGSLRLSCAASGRTYISNVIGWYRQAPGKERELVAAISGSSGSTRYADSVKGRFTISRDNAKNTVYLQMNSLKPEDSAVYYCAARAPWPKWGYYYWGQGTQVTVSS | high polyreactivity |

| Sequence | polyreactivity (PSR sort gate) |
| --- | --- |
| QVQLVESGGGVVQAGGSLRLSCAASGRIFRYNAMGWYRQAPGKEREVVAGISFSGGSTYYADSVKGRFTISRDNAKNTVYLQMNSLKPEDTAVYYCNAYGRYSYPTFDYWGQGTQVTVSS | high polyreactivity |
| QVQLVESGGGLVQAGGSLRLSCAASGRIFRGSAMGWYRQAPGKERELVATINASGGTTYYADSVKGRFTISRDNAKNTVYLQMNSLKPEDTAVYYCNARFRRFFSGYGYWGQGTQVTVSS | high polyreactivity |
| QVQLVDSAGVLVQAGGSLSLICAASGRTYGIYAMGWYRQAPGKERELVADISSDASTSYAYSVKGRFTISRDNAKNTVYLQMNSLKAEDTAVYYCAADPGPYYDWGYYYWGQGTQVTVSS | low polyreactivity |
| QVQLVESGGGLVQAGGSLRLSCAASGSIVLIYAMGWYRQAPGKERELVAAITGRGGRTYYADSVKGRFTISRDNAKNTVYLQLNSLKPEDTAVYYCAADSVYTLGLKYDYWGQGTQVTVSS | high polyreactivity |
| QVQLVESGGGLVQAGGSLRLSCAASGRIFSNNAMGWYRQAPGKERELVAAIDSSGDSTNYADSVKGRFTISRDNAKNTVYLQMNSLKPEDTAVYYCNARQSGRRVWQYLYGYWGQGTQVTVSS | high polyreactivity |
| QVQLVESGGALVQAGGSLRLSCSASGSLFIYYAIRWYRQAPGKERELVAAISISGARTYYADSVKGRFTNSRDNAKNTVYLQMNSLKPEDTAVYYCNVSSRRLRGLDYWGQVTQVTVSS | low polyreactivity |
| QVQLVESGGGLVQAGGSLRLSCAASGSTFWYYTMGWYRQAPGKERELVAAISKSGTNTYYADSVKGRFTISRDQAKNTVYLQMNSLKPEDTAVDYCNALTKTGTPPDYDYWGQGTQVTVSS | high polyreactivity |
| QVQLQESGGGLVQAGGSLRLSCAASGTISDSGLMGWYRQAPGKERELVAGISSGGITNYADSVKGRFTISRDNAKKTVYLQMNSLKPEDTAVYWGQGTQLTVSS | low polyreactivity |
| QVQLVESGGGLVQAGGSLRLSCAASGFIFGSNAMGWYRQAPGKERELVAAISRSGGSTYYADSVKGRFTISRDNAKNTVYLQMNSLKPEDTAVYYCNVDLWPFVYSWWSYDYWGQGTQVTVSS | high polyreactivity |
| QVQLVESGGGLVQAGGSLRLSCAASGLTSYDYGMGWYRQAPGKERELVAAITWSGGSTYYADSVKGRFTISRDNAKNTVYLEMHSLKPEDTAVYYCAAESWGYGWYGYWGQGNQVTVSS | low polyreactivity |
| QVQLVESGGGLVQAGGSLRLSCAASGRIFENDMGWYRQAPGKERELVATIRSDGSTNYADSVKGRFTISRDNAKNTVYLQMNSLKPEDTAVYYCAADYLGPDYFFFSNYPYDYWGQGTQVTVSS | low polyreactivity |
| QVQLVESGGGLVQAGGSLRLSCAASGLTFDWYAMGWYRQAPGKERELVAAISWNGVSTDYADSVKGRFTISRDNAKNTVYLQMNSLKPEDTAVYYCAADPPWYLYVGFDYWGQGTQVSVSS | high polyreactivity |
| QVQLVESGGGLVQAGGSLRLSCAASGSTFRANAMGWYRQAPGKERELVAAITSGGSTNYADSVKGRFTISRDNATNTVYLQMNSLKPEDTAVYYCADESYQEHSFYVYYGYDYWGQGTQVTVSS | low polyreactivity |
| QVQLVESGGGLVQAGGSLRLSCAASGSIFSRNAMGWYRQAPGKERELVAGISTGGSTNYADSVKGRFTISRDNAKNTVYLQMNSLKPEDTAVYYCAAPLAYEGDDWGQGTQLTVSS | low polyreactivity |
| QVQLVESGGGLVQAGGSLRLSCAASGFTLRSYTMGWYRQAPGKERELVAAITSRGTSTYYADSVKGRFTISRDNAKNTVYLQMNSLKPEDTAVYYCADPIYNGYASWQVYYWGQGTQVTVSS | high polyreactivity |
| QVQLVESGGGLDQAGGSLRLSCAASARIYGYYANGWYRQAPGKERELVAAINSGGSTYYADSVKGRFTISRDNAKNTVYLQMNSLKPEDTAVYYCAAYKFSVHGYDYWGQGTQGTVSS | high polyreactivity |
| QVQLVESGGGLVQAGGSLRLSCAASGRIFATNAMGLYRPAPGKERELVATITRSAGRTYYADSVKGRFTISRDNAKNTVYLQMNSLKPEDTAVYYCAASYWDTEPGYREYVYWGQGTQVTVSS | low polyreactivity |
| QVQLVESGGGLVQAGGSLRLSCAASGRIFIGNAMGWYRQAPGKERELVAAISKRGGSTYYADSVKGRFTISRDNAKNTVYLQMNSLKQEDTAVYYCNKESLYREFDYWGQGTQVTVSS | low polyreactivity |
| QVQLVESGGGLVQAGGSLRLRCASSGSIFYWYAMGWYRQAPGKERELVAAISRSGGSTYYADSVKGRFTISRDNAKNTVYLQMNSLKPEDTAVYYCATELSYRHGYWGQGTQVTVSS | high polyreactivity |
| QVQLVESGGGLVQAGGSLRLSCAASGSTFQWYAMGWYRQAPGKERELVAAINKSGGTTYYADSVKGRFTISRDNAKNTVYLQMNSLKPEDTAVYYCAADTQQRGVYPRWWNPEFDYWGLGTQVTVSS | low polyreactivity |
| QVQLVESGGGLVQAGGSLRLSCAASGSTFVLYAMGWYRQAPGKERELVAAISTSGGRTYYADSVKGRFTISRDNAKNTVNLQMNSLKPEDTAVYYCAALTYVAQYDEYWGQGTQVTVSS | low polyreactivity |
